Results from US20190077860A1 (EISAI R AND D MANAGEMENT, published 2019).

B1: humanized antibody No. 140 (antibody, human IgG2)
heavy: QVQLVQSGSELKKPGASVKVSCKASGYTFTDYSMHWVRQAPGQGLKWMGWINTETGEPTYAQGFTGRFVFSLDTSVSTAYLQISSLKAEDTAVYYCARIPLYYYGSRYWYFDVWGQGTTVTVSSASTKGPSVFPLAPSSRSTSESTAALGCLVKDYFPEPVTVSWNSGALTSGVHTFPAVLQSSGLYSLSSVVTVPSSNFGTQTYTCNVDHKPSNTKVDKTVERKSCVECPPCPAPPAAAPSVFLFPPKPKDTLMISRTPEVTCVVVDVSHEDPEVQFNWYVDGVEVHNAKTKPREEQFNSTFRVVSVLTVVHQDWLNGKEYKCKVSNKGLPAPIEKTISKTKGQPREPQVYTLPPSREEMTKNQVSLTCLVKGFYPSDIAVEWESNGQPENNYKTTPPMLDSDGSFFLYSKLTVDKSRWQQGNVFSCSVMHEALHNHYTQKSLSLSPG
light: DIQMTQSPSSLSASVGDRVTITCRASENIYRNLAWYQQKPGKAPKLLVYAATNLADGVPSRFSGSGSGTDYTLTISSLQPEDFATYYCQHFWGTPWTFGQGTKVEIKRTVAAPSVFIFPPSDEQLKSGTASVVCLLNNFYPREAKVQWKVDNALQSGNSQESVTEQDSKDSTYSLSSTLTLSKADYEKHKVYACEVTHQGLSSPVTKSFNRGEC
notes: human Ig kappa; also called L1-4/HA2
B2: humanized antibody No. 142 (antibody, human IgG2)
heavy: QVQLVQSGSELKKPGASVKVSCKASGYTFTDYSMHWVRQAPGQGLKWMGWINTETGEPTYADDFKGRFVFSLDTSVSTAYLQISSLKAEDTAVYYCARIPLYYYGSRYWYFDVWGQGTTVTVSSASTKGPSVFPLAPSSRSTSESTAALGCLVKDYFPEPVTVSWNSGALTSGVHTFPAVLQSSGLYSLSSVVTVPSSNFGTQTYTCNVDHKPSNTKVDKTVERKSCVECPPCPAPPAAAPSVFLFPPKPKDTLMISRTPEVTCVVVDVSHEDPEVQFNWYVDGVEVHNAKTKPREEQFNSTFRVVSVLTVVHQDWLNGKEYKCKVSNKGLPAPIEKTISKTKGQPREPQVYTLPPSREEMTKNQVSLTCLVKGFYPSDIAVEWESNGQPENNYKTTPPMLDSDGSFFLYSKLTVDKSRWQQGNVFSCSVMHEALHNHYTQKSLSLSPG
light: DIQMTQSPSSLSASVGDRVTITCRASENIYRNLAWYQQKPGKAPKLLVYAATNLADGVPSRFSGSGSGTDYTLTISSLQPEDFATYYCQHFWGTPWTFGQGTKVEIKRTVAAPSVFIFPPSDEQLKSGTASVVCLLNNFYPREAKVQWKVDNALQSGNSQESVTEQDSKDSTYSLSSTLTLSKADYEKHKVYACEVTHQGLSSPVTKSFNRGEC
notes: human Ig kappa; also called L1-4/HK2
B3: humanized antibody No. 141 (antibody, human IgG2)
heavy: QVQLVQSGSELKKPGASVKVSCKASGYTFTDYSMHWVRQAPGQGLEWMGWINTETGEPTYADDFKGRFVFSLDTSVSTAYLQISSLKAEDTAVYYCARIPLYYYGSRYWYFDVWGQGTTVTVSSASTKGPSVFPLAPSSRSTSESTAALGCLVKDYFPEPVTVSWNSGALTSGVHTFPAVLQSSGLYSLSSVVTVPSSNFGTQTYTCNVDHKPSNTKVDKTVERKSCVECPPCPAPPAAAPSVFLFPPKPKDTLMISRTPEVTCVVVDVSHEDPEVQFNWYVDGVEVHNAKTKPREEQFNSTFRVVSVLTVVHQDWLNGKEYKCKVSNKGLPAPIEKTISKTKGQPREPQVYTLPPSREEMTKNQVSLTCLVKGFYPSDIAVEWESNGQPENNYKTTPPMLDSDGSFFLYSKLTVDKSRWQQGNVFSCSVMHEALHNHYTQKSLSLSPG
light: DIQMTQSPSSLSASVGDRVTITCRASENIYRNLAWYQQKPGKAPKLLVYAATNLADGVPSRFSGSGSGTDYTLTISSLQPEDFATYYCQHFWGTPWTFGQGTKVEIKRTVAAPSVFIFPPSDEQLKSGTASVVCLLNNFYPREAKVQWKVDNALQSGNSQESVTEQDSKDSTYSLSSTLTLSKADYEKHKVYACEVTHQGLSSPVTKSFNRGEC
notes: human Ig kappa; also called L1-4/HK1
B4: humanized antibody No. 138 (antibody, human IgG2)
heavy: QIQLVQSGSELKKPGASVKVSCKASGYTFTDYSMHWVRQAPGQGLKWMGWINTETGEPTYAQGFTGRFVFSLDTSVSTAYLQISSLKAEDTAVYYCARIPLYYYGSRYWYFDVWGQGTTVTVSSASTKGPSVFPLAPSSRSTSESTAALGCLVKDYFPEPVTVSWNSGALTSGVHTFPAVLQSSGLYSLSSVVTVPSSNFGTQTYTCNVDHKPSNTKVDKTVERKSCVECPPCPAPPAAAPSVFLFPPKPKDTLMISRTPEVTCVVVDVSHEDPEVQFNWYVDGVEVHNAKTKPREEQFNSTFRVVSVLTVVHQDWLNGKEYKCKVSNKGLPAPIEKTISKTKGQPREPQVYTLPPSREEMTKNQVSLTCLVKGFYPSDIAVEWESNGQPENNYKTTPPMLDSDGSFFLYSKLTVDKSRWQQGNVFSCSVMHEALHNHYTQKSLSLSPG
light: DIQMTQSPSSLSASVGDRVTITCRASENIYRNLAWYQQKPGKAPKLLVYAATNLADGVPSRFSGSGSGTDYTLTISSLQPEDFATYYCQHFWGTPWTFGQGTKVEIKRTVAAPSVFIFPPSDEQLKSGTASVVCLLNNFYPREAKVQWKVDNALQSGNSQESVTEQDSKDSTYSLSSTLTLSKADYEKHKVYACEVTHQGLSSPVTKSFNRGEC
notes: human Ig kappa; also called L1-4/HA4
B5: humanized antibody No. 139 (antibody, human IgG2)
heavy: QVQLVQSGSELKKPGASVKVSCKASGYTFTDYSMHWVRQAPGQGLEWMGWINTETGEPTYAQGFTGRFVFSLDTSVSTAYLQISSLKAEDTAVYYCARIPLYYYGSRYWYFDVWGQGTTVTVSSASTKGPSVFPLAPSSRSTSESTAALGCLVKDYFPEPVTVSWNSGALTSGVHTFPAVLQSSGLYSLSSVVTVPSSNFGTQTYTCNVDHKPSNTKVDKTVERKSCVECPPCPAPPAAAPSVFLFPPKPKDTLMISRTPEVTCVVVDVSHEDPEVQFNWYVDGVEVHNAKTKPREEQFNSTFRVVSVLTVVHQDWLNGKEYKCKVSNKGLPAPIEKTISKTKGQPREPQVYTLPPSREEMTKNQVSLTCLVKGFYPSDIAVEWESNGQPENNYKTTPPMLDSDGSFFLYSKLTVDKSRWQQGNVFSCSVMHEALHNHYTQKSLSLSPG
light: DIQMTQSPSSLSASVGDRVTITCRASENIYRNLAWYQQKPGKAPKLLVYAATNLADGVPSRFSGSGSGTDYTLTISSLQPEDFATYYCQHFWGTPWTFGQGTKVEIKRTVAAPSVFIFPPSDEQLKSGTASVVCLLNNFYPREAKVQWKVDNALQSGNSQESVTEQDSKDSTYSLSSTLTLSKADYEKHKVYACEVTHQGLSSPVTKSFNRGEC
notes: human Ig kappa; also called L1-4/HA1

How the values were obtained:
[1] = target: T1, human EphB1 extracellular region-SEAP-His protein (human, UniProt P54762 18-540); assay: ELISA
T1 construct: extracellular domain; also called hEphB1-SEAP-His
T1 sequence (looked up): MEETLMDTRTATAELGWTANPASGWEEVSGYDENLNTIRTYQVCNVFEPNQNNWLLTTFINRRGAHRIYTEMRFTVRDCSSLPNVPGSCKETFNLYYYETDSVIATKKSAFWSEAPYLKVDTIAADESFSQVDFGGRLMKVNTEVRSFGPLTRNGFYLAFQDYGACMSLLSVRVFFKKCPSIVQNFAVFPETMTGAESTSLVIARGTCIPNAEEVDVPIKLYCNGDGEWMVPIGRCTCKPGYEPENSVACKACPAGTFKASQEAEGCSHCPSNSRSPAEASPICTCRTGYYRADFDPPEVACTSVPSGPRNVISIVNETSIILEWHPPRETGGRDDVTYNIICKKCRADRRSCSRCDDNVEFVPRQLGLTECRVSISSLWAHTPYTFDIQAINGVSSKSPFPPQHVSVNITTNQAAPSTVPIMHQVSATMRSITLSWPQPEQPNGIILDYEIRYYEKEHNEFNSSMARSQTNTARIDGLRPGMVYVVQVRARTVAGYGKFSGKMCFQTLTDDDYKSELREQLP
Experimental: Each well of a 96-well plate (Nunc) was coated with a rabbit anti-6-His antibody (Bethyl Laboratories). Each well was […] After washing with 0.05% Tween 20/PBS (Nacalai Tesque) three times, the SEAP-His protein of human EphA1, EphA2, EphA3, EphA4, EphA5, EphA6, EphA7, EphA8, EphA10, EphB1, EphB2, EphB3, EphB4, or EphB6 was added (final concentration: 1 nM) to each well and incubated at room temperature for 1 hour. After washing three times, the humanized antibody was added to each well and incubated at room temperature for 1 hour. After washing three times, a horseradish peroxidase-labeled donkey […] antibody (Jackson ImmunoResearch Laboratories) was added thereto and incubated at room temperature for 1 hour. After washing three times, TMB Microwell Peroxidase Substrate System (Kirkegaard & Perry Laboratories (KPL)) was added to each well. After confirmation of moderate color development, an equal amount of a reaction stopping solution (1N H₂SO₄, Wako Pure Chemical Industries) was added to each well. The absorbance at 450 nm was read using a microplate reader (Thermo Fisher Scientific).

[2] = target: T2, human EphA4 extracellular region-SEAP-His protein (human, UniProt P54764 20-547); assay: competition ELISA, competitor human Ephrin A5-Fc
T2 construct: also called hEphA4-SEAP-His
T2 sequence (P54764 20-547): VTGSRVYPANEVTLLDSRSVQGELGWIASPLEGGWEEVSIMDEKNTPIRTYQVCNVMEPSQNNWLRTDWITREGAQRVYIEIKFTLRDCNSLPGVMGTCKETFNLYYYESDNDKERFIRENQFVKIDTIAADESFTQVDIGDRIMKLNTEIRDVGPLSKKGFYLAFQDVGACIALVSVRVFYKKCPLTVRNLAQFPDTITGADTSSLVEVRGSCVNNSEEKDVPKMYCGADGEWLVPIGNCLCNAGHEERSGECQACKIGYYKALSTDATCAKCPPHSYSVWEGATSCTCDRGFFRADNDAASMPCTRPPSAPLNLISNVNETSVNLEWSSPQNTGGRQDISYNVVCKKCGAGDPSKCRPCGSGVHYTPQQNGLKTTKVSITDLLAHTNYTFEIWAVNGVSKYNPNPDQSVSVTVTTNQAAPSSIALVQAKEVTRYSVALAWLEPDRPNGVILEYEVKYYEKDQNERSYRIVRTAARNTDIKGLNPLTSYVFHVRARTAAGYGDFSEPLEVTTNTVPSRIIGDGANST
Experimental: Each anti-EphA4 monoclonal humanized antibody obtained in Example 16 was evaluated for its inhibitory activity against the binding between human EphA4 and its human ligand according to the following steps. Each well of a 96-well plate (Nunc) was coated with an anti-alkaline phosphatase antibody (Thermo Fisher Scientific). After incubation overnight at 4° C., each well was blocked with 1% BlockAce (DS Pharma Biomedical) at room temperature for 1 hour. After washing with 0.05% Tween 20/PBS (Thermo Fisher Scientific) three times, the human EphA4 extracellular region-SEAP-His protein obtained by the method of Example 2 was added (final concentration: 10 nM) to each well and incubated at room temperature for 1 hour. After washing three times, a ligand and each serially diluted humanized antibody of antibody A (0, 0.003, 0.01, 0.03, 0.1, 0.3, 1, 3, 10, 30, 100, 300, 1000, and 3000 nM) were added to each well. The ligand used was biotinylated human Ephrin A5-Fc chimera (R&D Systems, final concentration: 0.7 nM). After incubation at room temperature for 1 hour and subsequent washing three times, horseradish peroxidase-labeled streptavidin (GE Healthcare) was added thereto and incubated at room temperature for 1 hour. After washing three times, a TMBZ (3,3′,5,5′-tetramethylbenzidine, Sigma-Aldrich) solution was added to each well and incubated at room temperature for 2 minutes. An equal amount of a reaction stopping solution (1N H₂SO₄, Wako Pure Chemical Industries) was added to each well. The absorbance at 450 nm was read using a microplate reader (PerkinElmer).

[3] = target: T2, human EphA4 extracellular …; assay: SPR, Ab captured
Experimental: The binding affinity of each anti-EphA4 monoclonal humanized antibody obtained in Example 16 for human EphA4 was determined by surface plasmon resonance (SPR) using Biacore T200 (GE Healthcare). First, for the assay of antibody A, a rat anti-mouse IgG₁ antibody produced with a conventional method by immunizing rat with mouse IgG₁ antibody was immobilized on sensor chip CM5. The immobilization of the rat anti-mouse IgG1 antibody on sensor chip CM5 was performed by the amine coupling method using N-hydroxysuccinimide (NHS) and N-ethyl-N′-(3-dimethylaminopropyl)carbodiimide hydrochloride (EDC). Ethanolamine was used in blocking (the sensor chip and the reagents for immobilization were all manufactured by GE Healthcare). The antibody was diluted with a buffer solution for immobilization (10 mM sodium acetate, pH 4.5) and immobilized on the sensor chip according to the protocol attached to Biacore T200. For the assay of each humanized monoclonal antibody, a protein A chip (GE Healthcare, 29-1383-03) was used. Antibody A or the humanized monoclonal antibody was diluted with a running buffer solution HBS-EP (GE Healthcare), injected onto only flow cell 2 for 120 seconds, and captured (captured amount: approximately 30 to 60 RU). Subsequently, human EphA4 extracellular region-SEAP-His protein serially diluted in the range of 50, 16.7, 5.6, 1.9, and 0.6 nM using HBS-EP was sequentially added from the lower toward higher concentration sides without regeneration operation. Binding reaction curves were sequentially observed at the time of the addition (association phase, for 120 sec) and after the completion of the addition (dissociation phase, for 900 sec). After the completion of each observation, the sensor chip was regenerated by the addition of 3 M MgCl₂ (for 60 sec) or 10 mM Glycine-HCl pH 1.5 (for 30 sec). The obtained binding reaction curves were subjected to fitting analysis with 1:1 binding models using software BIA evaluation attached to the system to calculate the affinity (KD=kd/ka) for human EphA4 (Table 6).

Row | Binder | A450 as % of hEphA4-SEAP-His [1] [%] | IC50 [2] [nM] | Kd [3] [nM] | koff [3] [s⁻¹] | kon [3] [M⁻¹ s⁻¹]
1 | B1 | 5.3 | 2.4 | 1.4 | 0.00043 | 320000
2 | B2 | 5.6 | 3.7 | 1.5 | 0.0005 | 340000
3 | B3 | 5.4 | 3 | 1.6 | 0.00062 | 390000
4 | B4 | 5.1 | 2.9 | 1.3 | 0.00043 | 330000
5 | B5 | 5.5 | 3.3 | 1.4 | 0.00053 | 370000
